# Read-outs that look alike come from different tables or passages of the source. Where no end group is shown, it is not given here.
# T1: Human TROP2 ECD (31-274 AA), biotinylated (human, UniProt P09758 31-274, biotinylated (site not stated))
# T1 construct: also called TROP2-biotin; Trop2-biotin
# T1 sequence: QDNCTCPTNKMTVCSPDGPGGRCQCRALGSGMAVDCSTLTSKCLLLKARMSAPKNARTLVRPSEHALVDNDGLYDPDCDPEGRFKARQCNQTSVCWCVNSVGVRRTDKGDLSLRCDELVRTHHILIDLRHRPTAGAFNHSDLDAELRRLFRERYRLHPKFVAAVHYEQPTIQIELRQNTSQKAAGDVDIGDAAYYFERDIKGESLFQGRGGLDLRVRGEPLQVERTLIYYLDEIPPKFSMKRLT
# T2: Peptide-70 (cysteine pairing not given here; also: biotinylated, site not given here)
# T2 construct: mask peptide for the CD3 scFv
# T2 peptide: YLCGPDGDETLACY
# T3: Peptide-77 (cysteine pairing not given here; also: biotinylated, site not given here)
# T3 construct: mask peptide for the CD3 scFv
# T3 peptide: YLCGPDTDETLACY
# T4: Peptide-76 (cysteine pairing not given here; also: biotinylated, site not given here)
# T4 construct: mask peptide for the CD3 scFv
# T4 peptide: YLCGPDADETLACY
# B1: TCE-39 (anti-CD3 scFv P41S, A49G, N87S, L150F, T151S, G163R, P175A, K181T, T200V, A202D, L208I, G211N, L217I, S218T, V220A, P222A, E223D, A226S, E227D; … (bispecific antibody)
# light: DIQLTQSPSSLSASVGDRVSITCKASQDVSIAVAWYQQKPGKAPKLLIYSASYRYTGVPDRFSGSGSGTDFTLTISSLQPEDFAVYYCQQHYITPLTFGAGTKVEIKRTVAAPSVFIFPPSDEQLKSGTASVVCLLNNFYPREAKVQWKVDNALQSGNSQESVTEQDSKDSTYSLSSTLTLSKADYEKHKVYACEVTHQGLSSPVTKSFNRGEC
# heavy: EVQLVESGGGLVQPGGSLKLSCAASGFTFNKYAMNWVRQASGKGLEWVGRIRSKYNNYATYYADSVKDRFTISRDDSKNTAYLQMNSLKTEDTAVYYCVRHGNFGNSYISYWAYWGQGTLVTVSSGGGGSGGGGSGGGGSQTVVTQEPSFSVSPGGTVTLTCRSSTGAVTSGNYANWVQQTPGQAPRGLIGGTKFLAPGVPDRFSGSILGNKAALTITGAQADDESDYYCVLWYSNRWVFGGGTKLTVLGGGGSQVQLQQSGSELKKPGASVKVSCKASGYTFTNYGMNWVKQAPGQGLKWMGWINTYTGEPTYTDDFKGRFAFSLDTSVSTAYLQISSLKADDTAVYFCARGGFGSSYWYADVWGQGSLVTVSSASTKGPSVFPLAPSSKSTSGGTAALGCLVKDYFPEPVTVSWNSGALTSGVHTFPAVLQSSGLYSLSSVVTVPSSSLGTQTYICNVNHKPSNTKVDKKVEPKSC
# notes: scFv on the Fab heavy chain
# B2: Peptide-73 (peptide)
# peptide: VYCGPEFDESVGCA
# modifications: cysteine pairing not given here; also: biotinylated, site not given here
# notes: mask peptide for the CD3 scFv
# How the values were obtained:
# [1] = target: T1, Human TROP2 ECD (31-274 AA), …; experiment: ELISA, captured biotin-TROP2
# Peptide-73 = target: B2; experiment: ELISA, TCE on captured biotin-peptide
# Peptide-70 = target: T2, Peptide-70; experiment: ELISA, TCE on captured biotin-peptide
# Peptide-77 = target: T3, Peptide-77; experiment: ELISA, TCE on captured biotin-peptide
# Peptide-76 = target: T4, Peptide-76; experiment: ELISA, TCE on captured biotin-peptide
# [2] = target: T5, TCE-10 (anti-CD3 scFv R100A; anti-TROP2 wt); experiment: competition ELISA, TCE on captured CD3; Table 40 peptide panel (FIGS. 91-102), limit >100 µM
# T5 construct: scFv on the Fab heavy chain; also called TCE-10 (R100A)
# [3] = target: T6, TCE-20 (anti-CD3 scFv S110A; anti-TROP2 wt); experiment: as above
# T6 construct: scFv on the Fab heavy chain; also called TCE-20 (S110A)
# [4] = target: T7, TCE-36 (anti-CD3 scFv H101A; anti-TROP2 F108A); experiment: competition ELISA, TCE on captured CD3
# T7 construct: scFv on the Fab heavy chain
# [5] = target: T8, TCE-37 (anti-CD3 scFv F104A; anti-TROP2 F108A); experiment: competition ELISA, TCE on captured CD3
# T8 construct: scFv on the Fab heavy chain
# [6] = target: B1; experiment: competition ELISA, TCE on captured CD3
# [7] = target: T9, TCE-7 (anti-CD3 scFv wt; anti-TROP2 F108A); experiment: competition ELISA, TCE on captured CD3
# T9 construct: scFv on the Fab heavy chain
# [8] = target: T10, TCE-38 (anti-CD3 scFv F240A; anti-TROP2 F108A); experiment: competition ELISA, TCE on captured CD3
# T10 construct: scFv on the Fab heavy chain
# [9] = target: T11, TCE-31 (anti-CD3 scFv W238A; anti-TROP2 wt); experiment: competition ELISA, TCE on captured CD3; Table 41 run, peptide series with ceiling >100 µM
# T11 construct: scFv on the Fab heavy chain; also called TCE-31 (W238A)
# [10] = target: T12, TCE-22 (anti-CD3 scFv W112A; anti-TROP2 wt); experiment: as above
# T12 construct: scFv on the Fab heavy chain; also called TCE-22 (W112A)
# [11] = target: T5, TCE-10 (anti-CD3 scFv R100A; anti-TROP2 …); experiment: competition ELISA (IC50 above limit); Table 42 Peptide-73 series (FIGS. 103A-103C), limit >3 µM
# [12] = target: T6, TCE-20 (anti-CD3 scFv S110A; anti-TROP2 …); experiment: as above
# [13] = target: T13, TCE-28 (anti-CD3 scFv S235A; anti-TROP2 wt); experiment: competition ELISA, TCE on captured CD3
# T13 construct: scFv on the Fab heavy chain
# [14] = target: T14, TCE-15 (anti-CD3 scFv G105A; anti-TROP2 wt); experiment: competition ELISA, TCE on captured CD3
# T14 construct: scFv on the Fab heavy chain
# [15] = target: T15, TCE-14 (anti-CD3 scFv F104A; anti-TROP2 wt); experiment: competition ELISA, TCE on captured CD3
# T15 construct: scFv on the Fab heavy chain; also called TCE-14 (F104A)
# [16] = target: T16, TCE-1 (anti-CD3 scFv wt; anti-TROP2 Fab wt); experiment: competition ELISA, TCE on captured CD3
# T16 construct: anti-CD3 scFv fused to the N-terminus of the anti-TROP2 Fab heavy chain; also called TCE-1 (wt)
# [17] = target: T17, TCE-24 (anti-CD3 scFv V231A; anti-TROP2 wt); experiment: competition ELISA, TCE on captured CD3
# T17 construct: scFv on the Fab heavy chain
# [18] = target: T5, TCE-10 (anti-CD3 scFv R100A; anti-TROP2 …); experiment: competition ELISA, TCE on captured CD3
# [19] = target: T18, TCE-32 (anti-CD3 scFv V239A; anti-TROP2 wt); experiment: competition ELISA, TCE on captured CD3
# T18 construct: scFv on the Fab heavy chain
# [20] = target: T19, TCE-33 (anti-CD3 scFv F240A; anti-TROP2 wt); experiment: competition ELISA, TCE on captured CD3
# T19 construct: scFv on the Fab heavy chain; also called TCE-33 (F240A)
# [21] = target: T20, TCE-12 (anti-CD3 scFv G102A; anti-TROP2 wt); experiment: competition ELISA, TCE on captured CD3
# T20 construct: scFv on the Fab heavy chain
# [22] = target: T21, TCE-29 (anti-CD3 scFv N236A; anti-TROP2 wt); experiment: competition ELISA, TCE on captured CD3
# T21 construct: scFv on the Fab heavy chain
# [23] = target: T22, TCE-25 (anti-CD3 scFv L232A; anti-TROP2 wt); experiment: competition ELISA, TCE on captured CD3
# T22 construct: scFv on the Fab heavy chain
# [24] = target: T23, TCE-9 (anti-CD3 scFv V99A; anti-TROP2 wt); experiment: competition ELISA, TCE on captured CD3
# T23 construct: scFv on the Fab heavy chain
# [25] = target: T24, TCE-30 (anti-CD3 scFv R237A; anti-TROP2 wt); experiment: competition ELISA, TCE on captured CD3
# T24 construct: scFv on the Fab heavy chain
# [26] = target: T25, TCE-13 (anti-CD3 scFv N103A; anti-TROP2 wt); experiment: competition ELISA, TCE on captured CD3
# T25 construct: scFv on the Fab heavy chain; also called TCE-13 (N103A)
# [27] = target: T26, TCE-27 (anti-CD3 scFv Y234A; anti-TROP2 wt); experiment: competition ELISA, TCE on captured CD3
# T26 construct: scFv on the Fab heavy chain
# [28] = target: T27, TCE-18 (anti-CD3 scFv Y108A; anti-TROP2 wt); experiment: competition ELISA, TCE on captured CD3
# T27 construct: scFv on the Fab heavy chain
# [29] = target: T28, TCE-17 (anti-CD3 scFv S107A; anti-TROP2 wt); experiment: competition ELISA, TCE on captured CD3
# T28 construct: scFv on the Fab heavy chain
# [30] = target: T29, TCE-11 (anti-CD3 scFv H101A; anti-TROP2 wt); experiment: competition ELISA, TCE on captured CD3
# T29 construct: scFv on the Fab heavy chain; also called TCE-11 (H101A)
# [31] = target: T30, TCE-16 (anti-CD3 scFv N106A; anti-TROP2 wt); experiment: competition ELISA, TCE on captured CD3
# T30 construct: scFv on the Fab heavy chain
# [32] = target: T31, TCE-19 (anti-CD3 scFv I109A; anti-TROP2 wt); experiment: competition ELISA, TCE on captured CD3
# T31 construct: scFv on the Fab heavy chain
# [33] = target: T6, TCE-20 (anti-CD3 scFv S110A; anti-TROP2 …); experiment: competition ELISA, TCE on captured CD3
# [34] = target: T19, TCE-33 (anti-CD3 scFv F240A; anti-TROP2 …); experiment: competition ELISA, TCE on captured CD3; remark: listed apart in the source
# [35] = target: T15, TCE-14 (anti-CD3 scFv F104A; anti-TROP2 …); experiment: competition ELISA, TCE on captured CD3; remark: listed apart in the source
# [36] = target: T25, TCE-13 (anti-CD3 scFv N103A; anti-TROP2 …); experiment: competition ELISA, TCE on captured CD3; remark: listed apart in the source
# [37] = target: T29, TCE-11 (anti-CD3 scFv H101A; anti-TROP2 …); experiment: competition ELISA, TCE on captured CD3; remark: listed apart in the source
binder,measurement,setting,value
B1,EC50,[1],5.92 nM
same,EC50,Peptide-73,0.41 nM
same,EC50,Peptide-70,0.33 nM
same,EC50,Peptide-77,18.8 nM
same,EC50,Peptide-76,1.39 nM
B2,IC50,[2],16800 nM
same,IC50,[3],2200 nM
same,IC50,[4],1630 nM
same,IC50,[5],10 nM
same,IC50,[6],40 nM
same,IC50,[7],60 nM
same,IC50,[8],4620 nM
same,IC50,[9],25900 nM
same,IC50,[10],39100 nM
same,IC50,[11],3000 nM
same,IC50,[12],3000 nM
same,IC50,[13],100 nM
same,IC50,[14],310 nM
same,IC50,[15],70 nM
same,IC50,[16],140 nM
same,IC50,[17],230 nM
same,IC50,[18],> 3000 nM
same,IC50,[19],60 nM
same,IC50,[20],1900 nM
same,IC50,[21],230 nM
same,IC50,[22],230 nM
same,IC50,[23],650 nM
same,IC50,[24],160 nM
same,IC50,[25],140 nM
same,IC50,[26],820 nM
same,IC50,[27],620 nM
same,IC50,[28],110 nM
same,IC50,[29],100 nM
same,IC50,[30],1220 nM
same,IC50,[31],50 nM
same,IC50,[32],420 nM
same,IC50,[33],> 3000 nM
same,IC50,[34],3020 nM
same,IC50,[35],200 nM
same,IC50,[36],4070 nM
same,IC50,[37],2930 nM

# — US20230357429A1 (JANUX THERAPEUTICS, published 2023)
